Results as given in patent US20220112276A1 (Janssen / Centocor, published 2022).

T1: mouse pIgR extracellular domain (ECD) (mouse, UniProt O70570 19-645)
T1 construct: Bought from R&D Systems (Cat 2800-PG-050); also called mpIgR ECD
T1 sequence: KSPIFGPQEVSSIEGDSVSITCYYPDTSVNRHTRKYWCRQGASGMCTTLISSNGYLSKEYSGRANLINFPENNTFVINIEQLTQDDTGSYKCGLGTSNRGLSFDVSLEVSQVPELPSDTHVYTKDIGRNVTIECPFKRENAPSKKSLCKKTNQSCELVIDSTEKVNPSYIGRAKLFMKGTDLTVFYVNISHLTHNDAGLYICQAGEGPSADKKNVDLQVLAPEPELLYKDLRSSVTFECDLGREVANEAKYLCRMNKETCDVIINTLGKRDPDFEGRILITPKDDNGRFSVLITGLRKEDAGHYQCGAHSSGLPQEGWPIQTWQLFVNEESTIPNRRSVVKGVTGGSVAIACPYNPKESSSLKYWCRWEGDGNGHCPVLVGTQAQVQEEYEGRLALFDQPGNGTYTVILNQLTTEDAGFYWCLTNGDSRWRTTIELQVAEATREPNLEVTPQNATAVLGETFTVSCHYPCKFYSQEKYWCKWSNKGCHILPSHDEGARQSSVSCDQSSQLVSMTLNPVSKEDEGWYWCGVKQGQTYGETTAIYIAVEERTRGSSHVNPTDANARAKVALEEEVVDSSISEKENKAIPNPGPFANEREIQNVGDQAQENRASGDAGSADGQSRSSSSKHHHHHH

T2: rat pIgR extracellular domain (rat, UniProt P15083 19-643)
T2 construct: extracellular domain
T2 sequence (looked up): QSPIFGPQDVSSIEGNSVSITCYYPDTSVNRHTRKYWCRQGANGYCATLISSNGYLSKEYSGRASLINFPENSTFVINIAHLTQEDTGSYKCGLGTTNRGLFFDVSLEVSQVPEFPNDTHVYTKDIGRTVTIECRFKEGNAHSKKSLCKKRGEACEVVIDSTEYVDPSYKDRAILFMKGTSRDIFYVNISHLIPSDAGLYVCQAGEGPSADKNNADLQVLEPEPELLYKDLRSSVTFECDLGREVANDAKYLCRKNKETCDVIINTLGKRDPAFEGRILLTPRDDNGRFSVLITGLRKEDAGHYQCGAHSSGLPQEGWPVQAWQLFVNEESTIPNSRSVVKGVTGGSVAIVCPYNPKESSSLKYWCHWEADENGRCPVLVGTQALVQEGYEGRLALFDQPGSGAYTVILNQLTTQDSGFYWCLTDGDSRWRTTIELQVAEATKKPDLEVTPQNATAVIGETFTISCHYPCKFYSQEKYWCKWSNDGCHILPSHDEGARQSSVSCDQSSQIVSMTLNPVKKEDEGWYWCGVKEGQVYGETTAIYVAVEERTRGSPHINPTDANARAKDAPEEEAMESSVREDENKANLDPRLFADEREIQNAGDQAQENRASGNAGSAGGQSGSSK

B1: 01A06R3LS VHH Mono-Fc (Fc fusion)
chain: EVQLVESGGGVVQAEDSLRLSCAASGLPFSSSRMGWFRQAPGKEREFVAAIGWSGRSTYKYYADSVKGRFTVSGDNAKKTLDLQMKDLKPEDTAVYYCAAHPDYYGDPRTSGAYRYWGQGTQVTVSSSPAPELLGGPSVFLFPPKPKDTLMISRTPEVTCVVVDVSHEDPEVKFNWYVDGVEVHNAKTKPREEQYNSTYRVVSVLTVLHQDWLNGKEYKCKVSNKALPAPIEKTISKAKGQPREPQVYTKPPSREEMTKNQVSLSCLVKGFYPSDIAVEWESNGQPENNYKTTVPVLDSDGSFRLASYLTVDKSRWQQGNVFSCSVMHEALHNHYTQKSLSLSPGK
B2: 01B07R3L VHH Mono-Fc (Fc fusion)
chain: EVQLVESGGGVVQAEDSLRLSCAASGLPFSSSRMGWFRQVPGKEREFVAAIGWSGRSTYRYYDDSVKGRFTVSGDNAKNTLDLQMKGLKPEDTAVYYCAADPNYYGDVRTSGTYQYWGQGTQVTVSSSPAPELLGGPSVFLFPPKPKDTLMISRTPEVTCVVVDVSHEDPEVKFNWYVDGVEVHNAKTKPREEQYNSTYRVVSVLTVLHQDWLNGKEYKCKVSNKALPAPIEKTISKAKGQPREPQVYTKPPSREEMTKNQVSLSCLVKGFYPSDIAVEWESNGQPENNYKTTVPVLDSDGSFRLASYLTVDKSRWQQGNVFSCSVMHEALHNHYTQKSLSLSPGK
B3: 01G09R3LS VHH Mono-Fc (Fc fusion)
chain: EVQLVESGGGLVQAGDSLRLSCAASGRTFPTYAMGWFRQAPGKEREFVATIRWSGSTQYKYYADFVKGRFTISRDNAKNTVYLQMDSLKPEDTAVYYCAATTLLTDPRALNAYAYWGQGTQVTVSSSPAPELLGGPSVFLFPPKPKDTLMISRTPEVTCVVVDVSHEDPEVKFNWYVDGVEVHNAKTKPREEQYNSTYRVVSVLTVLHQDWLNGKEYKCKVSNKALPAPIEKTISKAKGQPREPQVYTKPPSREEMTKNQVSLSCLVKGFYPSDIAVEWESNGQPENNYKTTVPVLDSDGSFRLASYLTVDKSRWQQGNVFSCSVMHEALHNHYTQKSLSLSPGK
B4: 01A07R3LS VHH Mono-Fc (Fc fusion)
chain: QVQLVESGGGLVQAGDSLRLSCAASGRTFPTYAMGWFRQAPGKEREFVATIRWSGSTQYKYYADFVKGRFTISRDNAKNTVYLQMDSLKPEDTAVYYCAATTLLGDPRALNEYAYWGQGTQVTVSSSPAPELLGGPSVFLFPPKPKDTLMISRTPEVTCVVVDVSHEDPEVKFNWYVDGVEVHNAKTKPREEQYNSTYRVVSVLTVLHQDWLNGKEYKCKVSNKALPAPIEKTISKAKGQPREPQVYTKPPSREEMTKNQVSLSCLVKGFYPSDIAVEWESNGQPENNYKTTVPVLDSDGSFRLASYLTVDKSRWQQGNVFSCSVMHEALHNHYTQKSLSLSPGK
B5: 01E03R3 VHH Mono-Fc (Fc fusion)
chain: QVQLVESGGGLVQTGGSLRLSCAASGRTFSVYRVGWFRQAPGKEREFVAAVIWSGASTYKYAADSVKGRFTISRDNAENTVYLQMNSLKPEDTAVYYCAADPLGLPGPDVRVEGGYRHWGQGTLVTVSSSPAPELLGGPSVFLFPPKPKDTLMISRTPEVTCVVVDVSHEDPEVKFNWYVDGVEVHNAKTKPREEQYNSTYRVVSVLTVLHQDWLNGKEYKCKVSNKALPAPIEKTISKAKGQPREPQVYTKPPSREEMTKNQVSLSCLVKGFYPSDIAVEWESNGQPENNYKTTVPVLDSDGSFRLASYLTVDKSRWQQGNVFSCSVMHEALHNHYTQKSLSLSPGK
B6: 01B04R3L VHH Mono-Fc (Fc fusion)
chain: EVQLVESGGGLVQAGDSLRLSCAASGRTFTTYVMGWFRQAPGKEREFVATIAWSGSTNYKYYADSVKGRFTISRDNAKNTVYLRMNSLKPEDTAVYYCAASTVLTDPRRLNEYANWGQGTLVTVSSSPAPELLGGPSVFLFPPKPKDTLMISRTPEVTCVVVDVSHEDPEVKFNWYVDGVEVHNAKTKPREEQYNSTYRVVSVLTVLHQDWLNGKEYKCKVSNKALPAPIEKTISKAKGQPREPQVYTKPPSREEMTKNQVSLSCLVKGFYPSDIAVEWESNGQPENNYKTTVPVLDSDGSFRLASYLTVDKSRWQQGNVFSCSVMHEALHNHYTQKSLSLSPGK
B7: 01C12R2 VHH Mono-Fc (Fc fusion)
chain: EVQLVESGGGLVQAGGSLRLSCAASGRTFGSYSMGWFRQAPGKEREFVGAISWSGSSTYKYYEDSVKGRFTISRDNAKNTVPLQMNSLKPEDTGVYFCGGTMERRDPRRTSAYDYWGQGTLVTVSSSPAPELLGGPSVFLFPPKPKDTLMISRTPEVTCVVVDVSHEDPEVKFNWYVDGVEVHNAKTKPREEQYNSTYRVVSVLTVLHQDWLNGKEYKCKVSNKALPAPIEKTISKAKGQPREPQVYTKPPSREEMTKNQVSLSCLVKGFYPSDIAVEWESNGQPENNYKTTVPVLDSDGSFRLASYLTVDKSRWQQGNVFSCSVMHEALHNHYTQKSLSLSPGK
B8: 03C05R3 VHH Mono-Fc (Fc fusion)
chain: EVQLVESGGGLVKAEGSLRLSCVASTSIASINVMGWYRQAPGKERELVARISGGGITHYAESVEGRFTISRDNAKNTVHLQMNGLKPEDTAAYYCKADVFASSGHVTTYWGQGTLVTVSSSPAPELLGGPSVFLFPPKPKDTLMISRTPEVTCVVVDVSHEDPEVKFNWYVDGVEVHNAKTKPREEQYNSTYRVVSVLTVLHQDWLNGKEYKCKVSNKALPAPIEKTISKAKGQPREPQVYTKPPSREEMTKNQVSLSCLVKGFYPSDIAVEWESNGQPENNYKTTVPVLDSDGSFRLASYLTVDKSRWQQGNVFSCSVMHEALHNHYTQKSLSLSPGK
B9: 01F03R2LS VHH Mono-Fc (Fc fusion)
chain: EVQLVESGGGLVQAGDSLRLSCAASGRTGSSGAMGWFRQGPGKEREFVAALMWRNTVTYKYYEDSVKGRFTISRDNAKNTAYLQMNSLKPEDTAVYYCAADPDTYGDPRNSGAYDYWGQGTLVTVSSSPAPELLGGPSVFLFPPKPKDTLMISRTPEVTCVVVDVSHEDPEVKFNWYVDGVEVHNAKTKPREEQYNSTYRVVSVLTVLHQDWLNGKEYKCKVSNKALPAPIEKTISKAKGQPREPQVYTKPPSREEMTKNQVSLSCLVKGFYPSDIAVEWESNGQPENNYKTTVPVLDSDGSFRLASYLTVDKSRWQQGNVFSCSVMHEALHNHYTQKSLSLSPGK
B10: 01B02R2L VHH Mono-Fc (Fc fusion)
chain: EVQLVESGGGLVQAGGSLKLACAASGLTFSSYRMGWFRQAPGKEREFVAAIDWNGRGTYYRYYADSVKGRFTISRDNAKNTMCLQMNSLKPEDTAVYYSAIDSRTSIDPRTSGHYRYWGQGTLVTVSSSPAPELLGGPSVFLFPPKPKDTLMISRTPEVTCVVVDVSHEDPEVKFNWYVDGVEVHNAKTKPREEQYNSTYRVVSVLTVLHQDWLNGKEYKCKVSNKALPAPIEKTISKAKGQPREPQVYTKPPSREEMTKNQVSLSCLVKGFYPSDIAVEWESNGQPENNYKTTVPVLDSDGSFRLASYLTVDKSRWQQGNVFSCSVMHEALHNHYTQKSLSLSPGK

Tests used:
Assay in all cases: SPR, VHH captured by anti-Fc, ECD analyte
[1] = target: T1, mouse pIgR extracellular domain (ECD)
In short: (§1)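 Anti-human Fc surface captured VHH at 0.5 ug/ml (~200-300 RU); running buffer HBSP with 100 ug/ml BSA, 30 μL/min. Single-cycle kinetics with ECD injected low to high from 30 nM in 3-fold dilutions, dissociation 30 min. Double-referenced data globally fit to 1:1 Langmuir model for kon, koff, KD.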

[2] = target: T3, cynomolgus monkey pIgR extracellular domain (cynomolgus monkey, UniProt A0A2K5WMU9 19-638)
T3 construct: extracellular domain
In short: as §1

[3] = target: T4, human pIgR extracellular domain (ECD) (human, UniProt P01833 19-638)
T4 construct: Bought from R&D Systems (Cat 2717-PG-050); also called hpIgR ECD
In short: as §1

[4] = target: T2, rat pIgR extracellular domain
In short: as §1

T3 sequence (A0A2K5WMU9 entry or part of it): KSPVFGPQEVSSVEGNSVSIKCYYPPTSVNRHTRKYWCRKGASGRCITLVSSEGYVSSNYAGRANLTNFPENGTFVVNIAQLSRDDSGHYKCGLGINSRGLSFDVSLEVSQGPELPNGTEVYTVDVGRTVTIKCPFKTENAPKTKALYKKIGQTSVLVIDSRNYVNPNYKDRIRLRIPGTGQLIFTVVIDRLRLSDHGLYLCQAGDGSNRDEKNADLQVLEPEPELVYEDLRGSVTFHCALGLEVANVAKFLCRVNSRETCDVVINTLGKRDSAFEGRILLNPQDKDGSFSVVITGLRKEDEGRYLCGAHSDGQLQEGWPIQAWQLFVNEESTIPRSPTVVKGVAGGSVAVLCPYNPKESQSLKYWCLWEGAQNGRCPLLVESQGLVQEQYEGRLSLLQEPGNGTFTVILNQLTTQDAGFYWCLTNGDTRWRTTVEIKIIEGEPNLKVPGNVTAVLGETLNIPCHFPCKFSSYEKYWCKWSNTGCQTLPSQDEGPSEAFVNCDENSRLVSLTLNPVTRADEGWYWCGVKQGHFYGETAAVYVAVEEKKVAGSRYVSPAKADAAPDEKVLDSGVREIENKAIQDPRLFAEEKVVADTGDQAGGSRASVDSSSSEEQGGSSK
T4 sequence (P01833 other isoform, or with tags, fused parts or gaps): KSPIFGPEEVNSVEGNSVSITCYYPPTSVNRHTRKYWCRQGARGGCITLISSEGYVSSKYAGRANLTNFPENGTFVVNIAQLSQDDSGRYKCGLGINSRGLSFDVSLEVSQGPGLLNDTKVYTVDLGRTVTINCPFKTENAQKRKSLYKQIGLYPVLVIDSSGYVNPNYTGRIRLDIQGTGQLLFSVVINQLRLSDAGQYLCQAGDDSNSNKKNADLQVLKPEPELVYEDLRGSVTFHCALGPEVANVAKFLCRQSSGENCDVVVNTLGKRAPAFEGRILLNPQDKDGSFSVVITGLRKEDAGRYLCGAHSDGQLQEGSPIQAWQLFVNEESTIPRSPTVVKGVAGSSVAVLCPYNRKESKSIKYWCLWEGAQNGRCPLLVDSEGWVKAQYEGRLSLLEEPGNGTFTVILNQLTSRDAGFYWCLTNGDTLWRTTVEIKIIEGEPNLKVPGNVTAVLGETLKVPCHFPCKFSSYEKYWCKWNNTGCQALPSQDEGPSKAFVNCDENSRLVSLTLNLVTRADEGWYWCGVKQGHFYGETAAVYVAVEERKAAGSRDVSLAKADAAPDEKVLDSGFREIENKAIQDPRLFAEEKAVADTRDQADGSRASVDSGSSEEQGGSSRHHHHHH

Row | Binder | Kd [1] | Kd [2] | Kd [3] | Kd [4]
1 | B1 | 2.26 nM | 112 nM | 29 nM | 9.23 nM
2 | B2 | 3.48 nM | 138 nM | 58.7 nM | 8.51 nM
3 | B3 | 5.71 nM | 10 nM | 5.77 nM | 4.27 nM
4 | B4 | 8.93 nM | 10.1 nM | 28.6 nM | 6.85 nM
5 | B5 | 10.4 nM | 6.14 nM | 2.95 nM | 24.9 nM
6 | B6 | 9.2 nM | 5.94 nM | 13.8 nM | 4.71 nM
7 | B7 | 4.76 nM | 23 nM | 21.4 nM | 14.1 nM
8 | B8 | 9.02 nM | 16.5 nM | 0.094 nM | 1.83 nM
9 | B9 | 1.57 nM | 34.4 nM | 26.2 nM | 8.05 nM
10 | B10 | 4.47 nM | 14.2 nM | 20.2 nM | 13.4 nM
